# PMC6914362 (Nature, 2019)
# B1: SHMT1 wild type (enzyme, human, UniProt P34896 1-483, looked up)
# chain: MTMPVNGAHKDADLWSSHDKMLAQPLKDSDVEVYNIIKKESNRQRVGLELIASENFASRAVLEALGSCLNNKYSEGYPGQRYYGGTEFIDELETLCQKRALQAYKLDPQCWGVNVQPYSGSPANFAVYTALVEPHGRIMGLDLPDGGHLTHGFMTDKKKISATSIFFESMPYKVNPDTGYINYDQLEENARLFHPKLIIAGTSCYSRNLEYARLRKIADENGAYLMADMAHISGLVAAGVVPSPFEHCHVVTTTTHKTLRGCRAGMIFYRKGVKSVDPKTGKEILYNLESLINSAVFPGLQGGPHNHAIAGVAVALKQAMTLEFKVYQHQVVANCRALSEALTELGYKIVTGGSDNHLILVDLRSKGTDGGRAEKVLEACSIACNKNTCPGDRSALRPSGLRLGTPALTSRGLLEKDFQKVAHFIHRGIELTLQIQSDTGVRATLKEFKERLAGDKYQAAVQALREEVESFASLFPLPGLPDF
# B2: SHMT2ΔN (residues 18-504), dimeric (PLP-free) form (enzyme, human, UniProt P34897 18-504, looked up)
# chain: QLVRMAIRAQHSNAAQTQTGEANRGWTGQESLSDSDPEMWELLQREKDRQCRGLELIASENFCSRAALEALGSCLNNKYSEGYPGKRYYGGAEVVDEIELLCQRRALEAFDLDPAQWGVNVQPYSGSPANLAVYTALLQPHDRIMGLDLPDGGHLTHGYMSDVKRISATSIFFESMPYKLNPKTGLIDYNQLALTARLFRPRLIIAGTSAYARLIDYARMREVCDEVKAHLLADMAHISGLVAAKVIPSPFKHADIVTTTTHKTLRGARSGLIFYRKGVKAVDPKTGREIPYTFEDRINFAVFPSLQGGPHNHAIAAVAVALKQACTPMFREYSLQVLKNARAMADALLERGYSLVSGGTDNHLVLVDLRPKGLDGARAERVLELVSITANKNTCPGDRSAITPGGLRLGAPALTSRQFREDDFRRVVDFIDEGVNIGLEVKSKTAKLQDFKSFLLKDSETSQRLANLRQRVEQFARAFPMPGFDEH
# B3: Flag-HA epitope-tagged SHMT2ΔN (MEFs) (enzyme, human, UniProt P34897 18-504, looked up)
# chain: QLVRMAIRAQHSNAAQTQTGEANRGWTGQESLSDSDPEMWELLQREKDRQCRGLELIASENFCSRAALEALGSCLNNKYSEGYPGKRYYGGAEVVDEIELLCQRRALEAFDLDPAQWGVNVQPYSGSPANLAVYTALLQPHDRIMGLDLPDGGHLTHGYMSDVKRISATSIFFESMPYKLNPKTGLIDYNQLALTARLFRPRLIIAGTSAYARLIDYARMREVCDEVKAHLLADMAHISGLVAAKVIPSPFKHADIVTTTTHKTLRGARSGLIFYRKGVKAVDPKTGREIPYTFEDRINFAVFPSLQGGPHNHAIAAVAVALKQACTPMFREYSLQVLKNARAMADALLERGYSLVSGGTDNHLVLVDLRPKGLDGARAERVLELVSITANKNTCPGDRSAITPGGLRLGAPALTSRQFREDDFRRVVDFIDEGVNIGLEVKSKTAKLQDFKSFLLKDSETSQRLANLRQRVEQFARAFPMPGFDEH
# B4: SHMT2ΔN+A285T (enzyme, human, UniProt P34897 18-504, looked up)
# chain: QLVRMAIRAQHSNAAQTQTGEANRGWTGQESLSDSDPEMWELLQREKDRQCRGLELIASENFCSRAALEALGSCLNNKYSEGYPGKRYYGGAEVVDEIELLCQRRALEAFDLDPAQWGVNVQPYSGSPANLAVYTALLQPHDRIMGLDLPDGGHLTHGYMSDVKRISATSIFFESMPYKLNPKTGLIDYNQLALTARLFRPRLIIAGTSAYARLIDYARMREVCDEVKAHLLADMAHISGLVAAKVIPSPFKHADIVTTTTHKTLRGTRSGLIFYRKGVKAVDPKTGREIPYTFEDRINFAVFPSLQGGPHNHAIAAVAVALKQACTPMFREYSLQVLKNARAMADALLERGYSLVSGGTDNHLVLVDLRPKGLDGARAERVLELVSITANKNTCPGDRSAITPGGLRLGAPALTSRQFREDDFRRVVDFIDEGVNIGLEVKSKTAKLQDFKSFLLKDSETSQRLANLRQRVEQFARAFPMPGFDEH
# B5: SHMT2ΔN (residues 18-504), PLP-bound tetramer (enzyme, human, UniProt P34897 18-504, looked up)
# chain: QLVRMAIRAQHSNAAQTQTGEANRGWTGQESLSDSDPEMWELLQREKDRQCRGLELIASENFCSRAALEALGSCLNNKYSEGYPGKRYYGGAEVVDEIELLCQRRALEAFDLDPAQWGVNVQPYSGSPANLAVYTALLQPHDRIMGLDLPDGGHLTHGYMSDVKRISATSIFFESMPYKLNPKTGLIDYNQLALTARLFRPRLIIAGTSAYARLIDYARMREVCDEVKAHLLADMAHISGLVAAKVIPSPFKHADIVTTTTHKTLRGARSGLIFYRKGVKAVDPKTGREIPYTFEDRINFAVFPSLQGGPHNHAIAAVAVALKQACTPMFREYSLQVLKNARAMADALLERGYSLVSGGTDNHLVLVDLRPKGLDGARAERVLELVSITANKNTCPGDRSAITPGGLRLGAPALTSRQFREDDFRRVVDFIDEGVNIGLEVKSKTAKLQDFKSFLLKDSETSQRLANLRQRVEQFARAFPMPGFDEH
# modifications: pyridoxal-5'-phosphate (PLP) bound, internal aldimine linkage; PLP acceptor Lys280
# How the values were obtained:
# SEC [1] = target: the molecule itself; experiment: SEC
# SEC [2] = target: the molecule itself; experiment: SEC; remark: listed apart in the source
# native gel or EMSA = target: the molecule itself; experiment: native gel or EMSA
Protein,stoichiometry N (SEC [2]),also measured
B1,–,stoichiometry N (SEC [1]): 4
B2,2,–
B3,–,stoichiometry N (native gel or EMSA): 2
B4,2,–
B5,4,–
